Measured values: patent publication US20220204643A1 (published 2022)

How the values were obtained:
Assay in all cases: protein array
[1] = molecular target: T1, KH RNA binding domain containing, signal transduction associated 2, transcript variant 2 (human, UniProt Q5VWX1 1-349)
T1 construct: on protein array; also called KHDRBS2
T1 sequence: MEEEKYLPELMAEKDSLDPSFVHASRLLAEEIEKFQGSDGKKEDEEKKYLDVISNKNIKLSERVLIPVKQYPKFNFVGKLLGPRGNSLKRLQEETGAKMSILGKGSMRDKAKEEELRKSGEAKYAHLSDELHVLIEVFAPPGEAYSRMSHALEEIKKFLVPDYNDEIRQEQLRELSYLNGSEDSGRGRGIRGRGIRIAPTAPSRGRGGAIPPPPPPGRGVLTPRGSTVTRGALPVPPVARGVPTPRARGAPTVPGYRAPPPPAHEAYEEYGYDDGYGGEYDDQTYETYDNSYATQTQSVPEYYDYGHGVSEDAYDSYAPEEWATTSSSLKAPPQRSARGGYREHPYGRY

extended synaptotagmin 2 = molecular target: T2, extended synaptotagmin 2 (human, UniProt A0FGR8 564-921)
T2 construct: on protein array; also called ESYT2_frag
T2 sequence: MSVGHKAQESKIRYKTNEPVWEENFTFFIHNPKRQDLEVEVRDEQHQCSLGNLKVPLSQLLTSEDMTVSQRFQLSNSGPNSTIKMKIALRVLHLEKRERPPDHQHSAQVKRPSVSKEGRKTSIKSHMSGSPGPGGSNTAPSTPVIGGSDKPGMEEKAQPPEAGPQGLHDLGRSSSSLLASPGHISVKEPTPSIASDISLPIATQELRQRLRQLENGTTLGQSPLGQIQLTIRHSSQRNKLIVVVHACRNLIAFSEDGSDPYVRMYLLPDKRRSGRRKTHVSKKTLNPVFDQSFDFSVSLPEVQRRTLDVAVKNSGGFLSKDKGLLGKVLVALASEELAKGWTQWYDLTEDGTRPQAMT

[2] = molecular target: T3, nucleosome assembly protein 1 like 1, transcript variant 1 (human, UniProt P55209 2-388)
T3 construct: on protein array; also called NAP1L1
T3 sequence: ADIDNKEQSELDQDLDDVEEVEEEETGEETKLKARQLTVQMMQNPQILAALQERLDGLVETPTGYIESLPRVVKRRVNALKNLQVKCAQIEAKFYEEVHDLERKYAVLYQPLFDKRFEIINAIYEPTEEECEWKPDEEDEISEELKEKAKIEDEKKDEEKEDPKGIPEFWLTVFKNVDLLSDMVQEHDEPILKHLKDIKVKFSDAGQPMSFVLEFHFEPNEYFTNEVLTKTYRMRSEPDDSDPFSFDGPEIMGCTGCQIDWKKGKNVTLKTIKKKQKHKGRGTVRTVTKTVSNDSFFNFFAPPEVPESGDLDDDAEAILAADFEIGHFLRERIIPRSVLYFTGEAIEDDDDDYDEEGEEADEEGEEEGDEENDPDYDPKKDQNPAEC

[3] = molecular target: T4, TruB pseudouridine synthase family member 1 (human, UniProt Q8WWH5 2-349)
T4 construct: on protein array; also called TRUB1
T4 sequence: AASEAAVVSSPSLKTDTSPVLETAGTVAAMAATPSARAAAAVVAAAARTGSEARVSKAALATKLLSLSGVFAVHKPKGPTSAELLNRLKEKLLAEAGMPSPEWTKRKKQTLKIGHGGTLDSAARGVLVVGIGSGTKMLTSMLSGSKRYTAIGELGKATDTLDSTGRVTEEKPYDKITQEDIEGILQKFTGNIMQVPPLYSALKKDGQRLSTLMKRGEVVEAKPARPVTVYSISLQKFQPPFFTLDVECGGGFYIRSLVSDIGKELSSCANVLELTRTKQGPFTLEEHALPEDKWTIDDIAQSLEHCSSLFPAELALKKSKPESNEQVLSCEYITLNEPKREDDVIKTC

[4] = molecular target: T5, phospholipid scramblase 4, transcript variant X4 (human, UniProt Q9NRQ2 1-329)
T5 construct: on protein array; also called PLSCR4
T5 chain: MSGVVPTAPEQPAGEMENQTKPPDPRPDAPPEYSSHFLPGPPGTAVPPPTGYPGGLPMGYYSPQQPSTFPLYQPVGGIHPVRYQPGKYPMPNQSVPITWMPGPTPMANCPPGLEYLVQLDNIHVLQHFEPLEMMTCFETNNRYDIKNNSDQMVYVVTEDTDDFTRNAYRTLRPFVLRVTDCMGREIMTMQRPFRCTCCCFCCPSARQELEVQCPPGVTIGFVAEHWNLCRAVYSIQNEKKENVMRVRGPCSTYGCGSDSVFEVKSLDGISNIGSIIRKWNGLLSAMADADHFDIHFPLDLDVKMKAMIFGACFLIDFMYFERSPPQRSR

[5] = molecular target: T6, nudE neurodevelopment protein 1, transcript variant 1 (human, UniProt Q9NXR1 1-335)
T6 construct: on protein array; also called NDE1
T6 sequence: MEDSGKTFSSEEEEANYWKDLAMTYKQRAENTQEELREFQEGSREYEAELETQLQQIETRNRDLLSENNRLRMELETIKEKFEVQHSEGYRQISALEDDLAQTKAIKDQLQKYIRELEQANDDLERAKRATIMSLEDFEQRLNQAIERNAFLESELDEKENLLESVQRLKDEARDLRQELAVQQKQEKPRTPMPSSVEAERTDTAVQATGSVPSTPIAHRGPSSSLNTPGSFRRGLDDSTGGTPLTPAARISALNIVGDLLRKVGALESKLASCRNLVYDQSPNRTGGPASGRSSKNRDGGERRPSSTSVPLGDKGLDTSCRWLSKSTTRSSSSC

[6] = molecular target: T7, sorting nexin 33, transcript variant 1 (human, UniProt Q8WV41 1-574)
T7 construct: on protein array; also called SNX33
T7 sequence: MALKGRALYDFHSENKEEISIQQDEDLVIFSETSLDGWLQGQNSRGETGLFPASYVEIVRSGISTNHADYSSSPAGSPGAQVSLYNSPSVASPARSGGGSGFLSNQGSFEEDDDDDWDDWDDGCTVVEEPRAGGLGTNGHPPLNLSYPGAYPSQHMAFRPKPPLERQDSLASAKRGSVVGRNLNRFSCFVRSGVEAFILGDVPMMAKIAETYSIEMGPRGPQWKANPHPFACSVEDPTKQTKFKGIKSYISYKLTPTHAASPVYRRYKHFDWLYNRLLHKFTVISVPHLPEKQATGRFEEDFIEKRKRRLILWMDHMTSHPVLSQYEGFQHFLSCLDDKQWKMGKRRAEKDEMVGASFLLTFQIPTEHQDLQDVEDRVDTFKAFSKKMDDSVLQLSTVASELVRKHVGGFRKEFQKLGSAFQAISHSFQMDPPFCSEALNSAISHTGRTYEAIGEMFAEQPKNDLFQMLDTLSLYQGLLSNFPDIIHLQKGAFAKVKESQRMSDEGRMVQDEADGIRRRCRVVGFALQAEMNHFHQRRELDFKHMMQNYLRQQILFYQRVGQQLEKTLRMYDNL

[7] = molecular target: T8, SNAP associated protein, transcript variant 1 (human, UniProt O95295 2-136)
T8 construct: on protein array; also called SNAPIN
T8 sequence: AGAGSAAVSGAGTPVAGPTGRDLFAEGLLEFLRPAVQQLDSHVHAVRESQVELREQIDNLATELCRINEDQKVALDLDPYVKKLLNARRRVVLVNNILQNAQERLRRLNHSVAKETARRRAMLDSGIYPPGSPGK

B1: TCHO1001 (antibody, V domains shown)
VH: PVHLVQSGAEVKKPGSSVKVSCKLSGGIFSYFAIIWVRQAPGQGLEWMGTIIPIFGTSNYAEKFQDRVAIVADEATSTVYMEVNSLRSEDTAIYFCARDSEVEKSDGYMASTAEYFQLWGQGTLVTVSS
VL: not shown
notes: VH/VL only
- binding result [1]: binds

B2: TCOL1004 (antibody, V domains shown)
VH: QVQLQESGPGLVKPSQTLSLTCIVSGGSISGDKNFWSWVRQHPEKGLEWLGYISYNGNTYYNPSLISRIIISLDTPKNLFSLRLSSVTVADTAIYYCAREVDIRGDSDAFDIWGRGTVVTVSS
VL: EIVMTQSPATLSVSPGERATLSCRASQSVSTNLAWYQQRPGQAPRLFIFGASTRATGIPARFSGSGSGTEFTLTISSPQPEDSAVYYCQQYTTRPLTFGGGTKVEIKR
notes: VH/VL only
- binding result (extended synaptotagmin 2): binds

B3: TCER1001 (antibody, V domains shown)
VH: EVQLVESGGGLVQPGRSLRLSCAASGFTFDDYAMHWVRQAPGKGLEWVSGISWNSGSIGYADSVKGRFTISRDNAKNSLYLQMNSLRAEDTALYYCAKDLLGFRDQRNYYGMDVWGQGTTVTVSS
VL: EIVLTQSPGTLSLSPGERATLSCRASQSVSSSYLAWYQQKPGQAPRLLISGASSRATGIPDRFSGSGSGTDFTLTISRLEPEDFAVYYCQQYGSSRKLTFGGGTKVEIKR
notes: VH/VL only
- binding result [2]: binds

B4: TCER1003 (antibody, V domains shown)
VH: QITLKESGPTLVKPTQTLTLTCTFSGFSLTTTDVGVGWIRQPPGKALEWLTIIYWDDDERYSPSLKSRLTITKDTSKNQVVLSMTNMDPVDTATYYCARVYSTKWDFDYWGQGTLVTVSS
VL: VSSELTQDPAVSVALGQTVRITCQGDSLRRYYVSWYRQKPGEAPVVVIYGKNNRPSWIPDRLSGSSSGNTASLTITGAQAEDEADYYCCSRDSSGNPWVFGGGTKLTVLG
notes: VH/VL only
- binding result [3]: binds
- binding result [4]: binds

B5: TCER1002 (antibody, V domains shown)
VH: QVQLQESGPGLVKPSETLSLSCTVSGASMNNYYWSWIRQSAGKGLEWIGRIYSSGDTDYNPSLKTRVTMSIDTSKNQFSLNLDSVTAADTATYYCARSFYDTLFYFENWGQGTLVTVSS
VL: DIQMTQSPSTLSASVGDRVTITCRASQSISVWLAWYQQKPGKAPKLLIYKASTLEAGVPSRFSGSGSGTEFSLTISGLQPDDFGTYFCQHYDSYPWTFGQGTKVEMK
notes: VH/VL only
- binding result [5]: binds

B6: TCER1006 (antibody, V domains shown)
VH: EVQLVQSGAEVKKPGESLKISCKGSGYSFTSFWIGWVRQMPGKGLEWMGIIFPADSDTRYSPSFQGQVIISVDKSISTAYLQWSSLKASDTAMYYCARRGVSGGSAWTYYNFFDPWGQGTLVTVAS
VL: PSVLTQPPSVSAAPGQKVTISCSGSSSNIDNNYVSWYQQLPGTAPKLLIYENNKRASGIPDRFSGSKSGTSATLGITGLQTGDEADYYCGTWDSSLSPGGVFGGGTKLTVLG
notes: VH/VL only
- binding result [6]: binds

B7: TBLA1006 (antibody, V domains shown)
VH: VQLVDSGGGLVQPGRSLRLSCAASGFVFDDYAMHWVRQVPGKGLEWVSGISWNSVSIGYADSVKGRFTISRDNAKNSLYLQMNSLRPEDAALYYCVKSFSAEYYYYYYGMDVWGQGTTVTVSS
VL: LYVLTQPPSVSVAPGTTAWISCGGNNIGIKSVHWYQQKPGQAPLLVISYDSDRPSVIPERFSVSNSGNTVTLTISRVEAGDEADYYCQVWDNGHSHWVFGGGTKLTVLG
notes: VH/VL only
- binding result [7]: binds
